First the molecules themselves.
B1: LINE1-full (parent)
chain: UACGUAGGUGGUUUUCCCCUGAUAGUGCUAAGGGGGCCUGGAAGUUUGGACUGGGCAGAGCUCAACACAGCGUGGCAAAGUGGCUGUGGCUAGACUGCCUCUCUGGAUUCCUCGUCACUCAGCAGGGCAUCUCUGAGAGAAAUGCC

The data set covers variants of B1. Put plainly: self-cleavage, relative activity (ratio to wild type); higher = more cleavage; in vitro, sequencing; the parent is a self-cleaving ribozyme.
With UACGUAGGCGGUUUUCCCCUGAUAGUGCUAAGGGGGCCUGGAAGUUUGGACUGGGCUGAGCUCAACACAGCGUGGCAAAGUGGCUGUGGCUAGACUGCCUCUCUGGAUUCCUCGUCACUCAGCAGGGCAUCUCUGAGAGAAAUGCC [U9C A57U], the self-cleavage is 0.24.

For the variant UACGUAGGCGGUUUUCCCCUGAUAGUGCUAAGGGGGCCUGGAAGUUUGGACUGGGCAGAGCUCAACACAGCGUGGCAAAGUGGCUGUGGCUAGACUGCCUCUCUGGAUUCCUCGUCCCUCAGCAGGGCAUCUCUGAGAGAAAUGCC [U9C A117C], the self-cleavage was determined as 1.41. The same measure for UACGUAGGCGGUUUUCCCCUGAUAGUGCUAAGGGGGCCUGGAAGUUUGGACUGGGCAGAGCUCCACACAGCGUGGCAAAGUGGCUGUGGCUAGACUGCCUCUCUGGAUUCCUCGUCACUCAGCAGGGCAUCUCUGAGAGAAAUGCC [U9C A64C]: 0.35; for UACGUAGGCGGUUUUCCCCUGAUAGUGCUAAGGGGGCCUGGAAGUUUGGACUGGGCAGAGCUCUACACAGCGUGGCAAAGUGGCUGUGGCUAGACUGCCUCUCUGGAUUCCUCGUCACUCAGCAGGGCAUCUCUGAGAGAAAUGCC [U9C A64U]: 0.6. The same measure for UACGUAGGCGGUUUUCCCCUGAUAGUGCUAAGGGGGCCUGGAUGUUUGGACUGGGCAGAGCUCAACACAGCGUGGCAAAGUGGCUGUGGCUAGACUGCCUCUCUGGAUUCCUCGUCACUCAGCAGGGCAUCUCUGAGAGAAAUGCC [U9C A43U]: 0.77; for UACGUAGGAGGUUUUCCCCUGAUAGUGCUAAGGGGGCCUGGAAGUUUGGACUGGGCAGAGCUCAACACAGCGUGGCAAAGUGGCUGUGGCUAGACUGCCUCUCUGGAUUCCUCGUCACCCAGCAGGGCAUCUCUGAGAGAAAUGCC [U9A U119C]: 1.04. On to UACGUAGGCGGUUUUCCCCUGAUAGUGCUAAGGGGGCCUGGAAGUUUGGACUGGGCAGAGCUCAACACUGCGUGGCAAAGUGGCUGUGGCUAGACUGCCUCUCUGGAUUCCUCGUCACUCAGCAGGGCAUCUCUGAGAGAAAUGCC [U9C A69U], for which the self-cleavage came out at 0.06.

With UACGUAGGCGGUUUUCCCCUGAUGGUGCUAAGGGGGCCUGGAAGUUUGGACUGGGCAGAGCUCAACACAGCGUGGCAAAGUGGCUGUGGCUAGACUGCCUCUCUGGAUUCCUCGUCACUCAGCAGGGCAUCUCUGAGAGAAAUGCC [U9C A24G], the self-cleavage was 1.04. Consider UACGUAGGAGGUUUUCCCCUGAUAGUGCUAAGGGGGCCUGGAAGUUUGGACUGGGCAGAGCUCAACACAGCGUGGCAAAGUGGCUGUGGCUAGACUGCCUCUCUGGAUUCCUCGUCACUCAGCAGGGCAUCUCAGAGAGAAAUGCC [U9A U134A], for which the self-cleavage turned out to be 1.17. UACGUAGGAGGUUUUCCCCUGAUAGUGCUAAGGGGGCCUGGAAGUUUGGACUGGGCAGAGCUCAACACAGCGUGGCAAAGUGGCUGUGGCUAGACUGCCUCUCUGGAUUCCUCGACACUCAGCAGGGCAUCUCUGAGAGAAAUGCC [U9A U115A]: the self-cleavage came to 1.09. The same measure for UACGUAGGCGGUUUUCCCCUGGUAGUGCUAAGGGGGCCUGGAAGUUUGGACUGGGCAGAGCUCAACACAGCGUGGCAAAGUGGCUGUGGCUAGACUGCCUCUCUGGAUUCCUCGUCACUCAGCAGGGCAUCUCUGAGAGAAAUGCC [U9C A22G]: 1.03; for UACGUAGGAGGUUUUCCCCUGAUAGUGCUAAGGGGGCCUGGAAGUUUGGACUGGGCAGAGCUCAACACAGCGUGGCAAAGUGGCUGUGGCUAGACUGCCUCUCUGGAAUCCUCGUCACUCAGCAGGGCAUCUCUGAGAGAAAUGCC [U9A U108A]: 1.01. To UACGUAGGCGGUUUUCCCCUGAUAGUGCUAAGGGGGCCUGGAAGUUUGGACUGGGCAGAGCUCAGCACAGCGUGGCAAAGUGGCUGUGGCUAGACUGCCUCUCUGGAUUCCUCGUCACUCAGCAGGGCAUCUCUGAGAGAAAUGCC [U9C A65G] belongs 0.16. The same measure for UACGUAGGCGGUUUUCCCCUGAUAGUGCUAAGGGGGCCUGGCAGUUUGGACUGGGCAGAGCUCAACACAGCGUGGCAAAGUGGCUGUGGCUAGACUGCCUCUCUGGAUUCCUCGUCACUCAGCAGGGCAUCUCUGAGAGAAAUGCC [U9C A42C]: 0.88; for UACGUAGGCGGUUUUCCCCUGAUAGUGCUAAGGGGGCCUGGAAGUUUGGACUGGGCAGAGCUCAACACAGCGUGGCAAAGUGGCUGUGGCUAGACUGCCUCUCUGGAUUCCUCGUCACUCAGCAGGGCCUCUCUGAGAGAAAUGCC [U9C A129C]: 1.24. Turning to UACGUAGGCGGUUUUCCCCUGAUAGUGCUAAGGGGGCCUGGAAGUUUGGACUGGGCAGAGCUCAACACAGCGUGGCACAGUGGCUGUGGCUAGACUGCCUCUCUGGAUUCCUCGUCACUCAGCAGGGCAUCUCUGAGAGAAAUGCC [U9C A78C], the self-cleavage is 1.5. With UACGUAGGCGGUUUUCCCCUGAUAGUGCUAAGGGGGCCUGGAAGUUUGGACUGGGCAGAGCUCAACACAGCGUGGCAUAGUGGCUGUGGCUAGACUGCCUCUCUGGAUUCCUCGUCACUCAGCAGGGCAUCUCUGAGAGAAAUGCC [U9C A78U], the self-cleavage came to 2.65.

As for UACGUAGGCGGUUUUCCCCUGAUAGUGCUAAGGGGGCCUGGAAGUUUGGACUGGGCAGAGCUCAACACAGCGUGGCAAAGUGGCUGUGGCUAGACUGCCUCUCUGGAUUCCUCGUCACUCGGCAGGGCAUCUCUGAGAGAAAUGCC [U9C A121G], the self-cleavage is 1.27. As for UACGUAGGCGGUUUUCCCCUGAUAGUGCUAGGGGGGCCUGGAAGUUUGGACUGGGCAGAGCUCAACACAGCGUGGCAAAGUGGCUGUGGCUAGACUGCCUCUCUGGAUUCCUCGUCACUCAGCAGGGCAUCUCUGAGAGAAAUGCC [U9C A31G], the self-cleavage worked out at 0.91.

Consider UACGUAGGCGGUUUUCCCCUGAUAGUGCUAUGGGGGCCUGGAAGUUUGGACUGGGCAGAGCUCAACACAGCGUGGCAAAGUGGCUGUGGCUAGACUGCCUCUCUGGAUUCCUCGUCACUCAGCAGGGCAUCUCUGAGAGAAAUGCC [U9C A31U], for which the self-cleavage worked out at 1.2. The same measure for UACGUAGGCGGUUUUCCCCUGAUAGUGCUAAGGGGGCCUGGAAGUUUGGACUGGGCAGAGCUCAACACAGCGUGGCAACGUGGCUGUGGCUAGACUGCCUCUCUGGAUUCCUCGUCACUCAGCAGGGCAUCUCUGAGAGAAAUGCC [U9C A79C]: 1.2; for UACGUAGGCGGUUUUCCCCUGAUAGUGCUAAGGGGGCCUGGAAGUUUGGACUGGGCAGAGCUCAACACAGCGUGGCAAUGUGGCUGUGGCUAGACUGCCUCUCUGGAUUCCUCGUCACUCAGCAGGGCAUCUCUGAGAGAAAUGCC [U9C A79U]: 1.66. To UACGUAGGCGGUUUUCCCCUGAUAGUGCUAAGGGGGCCUGGAAGUUUGGACUGGGCAGAGCUCAACACAGCGUGGCAAGGUGGCUGUGGCUAGACUGCCUCUCUGGAUUCCUCGUCACUCAGCAGGGCAUCUCUGAGAGAAAUGCC [U9C A79G] belongs 1.35; to UACGUAGGAGGUUUUCCCCUGAUAGUGCUAAGGGGGCCUGGAAGUUUGGACUGGGCAGAGCUCAACACAGCGUGGCAAAGUGGCUGUGGCUAGACUGCCUCUCUGGAUACCUCGUCACUCAGCAGGGCAUCUCUGAGAGAAAUGCC [U9A U109A], 0.14. The same measure for UACGUAGGAGGUUUUCCCCUGAUAGUGCUAAGGGGGCCUGGAAGUUUGGACUGGGCAGAGCUCAACACAGCGUGGCAAAGUGGCUGUGGCUAGACUGCCUCUCGGGAUUCCUCGUCACUCAGCAGGGCAUCUCUGAGAGAAAUGCC [U9A U104G]: 0.98; for UACGUAGGCGGUUUUCCCCUGAUAGUGCUAAGGGGGCCUGGAAGUUUGGGCUGGGCAGAGCUCAACACAGCGUGGCAAAGUGGCUGUGGCUAGACUGCCUCUCUGGAUUCCUCGUCACUCAGCAGGGCAUCUCUGAGAGAAAUGCC [U9C A50G]: 1. Consider UACGUAGGCGGUUUUCCCCUGAUAGUGCUAAGGGGGCCUGGAAGUUUGGUCUGGGCAGAGCUCAACACAGCGUGGCAAAGUGGCUGUGGCUAGACUGCCUCUCUGGAUUCCUCGUCACUCAGCAGGGCAUCUCUGAGAGAAAUGCC [U9C A50U], for which the self-cleavage turned out to be 1.38. As to UACGUAGGAGGUUUUCCCCUGAUAGUGCUAAGGGGGCCUGGAAGUUUGGACUGGGCAGAGCUCAACACAGCGUGGCAAAGUGGCUGUGGCUAGACUGCCUCUCUGGAUUCCUCGUCACUCAGCAGGGCAACUCUGAGAGAAAUGCC [U9A U130A], the self-cleavage turned out to be 1.23. The same measure for UACGUAGGAGGUUUUCCCCUGAUAGUGCUAAGGGGGCCUGGAAGUUUGGACUGGGCAGAGCUCAACACAGCGUGGCAAAGUGGCUGUGGCUAGACUGCCUCUCUGGAUUCCUCGUCACUCAGCAGGGCACCUCUGAGAGAAAUGCC [U9A U130C]: 1.07; for UACGUAGGCGGUUUUCCCCUGAUAGUGCUAAGGGGGCCUGGAAGUUUGGACUGGGCAGAGCUCAACACAGCGUGGCAAAGUGGCUGUGGCUAGACUGCCUCUCUGGAUUCCUCGUCACUCAGCCGGGCAUCUCUGAGAGAAAUGCC [U9C A124C]: 2.53; for UACGUAGGCGGUUUUCCCCUGAUAGUGCUAAGGGGGCCUGGAAGUUUGGACUGGGCAGAGCUCAACACAGCGUGGCAAAGUGGCUGUGGCUAGACUGCCUCUCUGGAUUCCUCGUCACUCAGCGGGGCAUCUCUGAGAGAAAUGCC [U9C A124G]: 1.15. To UACGUAGGCGGUUUUCCCCUGAUAGUGCUAAGGGGGCCUGGAAGUUUGGACUGGGCAGGGCUCAACACAGCGUGGCAAAGUGGCUGUGGCUAGACUGCCUCUCUGGAUUCCUCGUCACUCAGCAGGGCAUCUCUGAGAGAAAUGCC [U9C A59G] belongs 0.11. To UACGUAGGCGGUUUUCCCCUGAUAGUGCUAAGGGGGCCUGGAAGUUUGGACUGGGCAGAGCUCAACACAGCGUGGCAAAGUGGCUGUGGCUAGACUGCCUCUCUGGAUUCCUCGUCACUCAGCAGGGCAUCUCUGAGAGAAAUGCC [U9C] belongs 1.22; to UACGUAGGCGGUUUUCCCCUGAUAGUGCUAAGGGGGCCUGGAAGUUUGGACUGGGCAGAGCUCAACACAGCGUGGCAAAGUGGCUGUGGCUCGACUGCCUCUCUGGAUUCCUCGUCACUCAGCAGGGCAUCUCUGAGAGAAAUGCC [U9C A92C], 0.48; to UACGUAGGCGGUUUUCCCCUGAUAGUGCUAAGGGGGCCUGGAAGUUUGGACUGGGCAGAGCUCAACACAGCGUGGCAAAGUGGCUGUGGCUUGACUGCCUCUCUGGAUUCCUCGUCACUCAGCAGGGCAUCUCUGAGAGAAAUGCC [U9C A92U], 0.28. For the variant UACGUAGGCGGUUUUCCCCUGAUAGUGCUAAGGGGGCCUGGAAGUUUGGACUGGGCAGAGCUCAACACAGCGUGGCAAAGUGGCUGUGGCUGGACUGCCUCUCUGGAUUCCUCGUCACUCAGCAGGGCAUCUCUGAGAGAAAUGCC [U9C A92G], the self-cleavage was found to be 0.1. To UACGUAGGCGGUUUUCCCCUGAUAGUGCUGAGGGGGCCUGGAAGUUUGGACUGGGCAGAGCUCAACACAGCGUGGCAAAGUGGCUGUGGCUAGACUGCCUCUCUGGAUUCCUCGUCACUCAGCAGGGCAUCUCUGAGAGAAAUGCC [U9C A30G] belongs 1.21. To UACGUAGGCGGUUUUCCCCUGAUAGUGCUUAGGGGGCCUGGAAGUUUGGACUGGGCAGAGCUCAACACAGCGUGGCAAAGUGGCUGUGGCUAGACUGCCUCUCUGGAUUCCUCGUCACUCAGCAGGGCAUCUCUGAGAGAAAUGCC [U9C A30U] belongs 0.87; to UACGUAGGCGGUUUUCCCCUGAUAGUGCUAAGGGGGCCUGGAAGUUUGGACUGGGCAGAGCUCAACACAGCGUGGCUAAGUGGCUGUGGCUAGACUGCCUCUCUGGAUUCCUCGUCACUCAGCAGGGCAUCUCUGAGAGAAAUGCC [U9C A77U], 1.19.

The values above are taken from the RNAGym collection of RNA variant scans (doi:10.7554/elife.90254).
